From patent publication US20260028402A1 (SANYOU BIOPHARMACEUTICALS, published 2026)
Substitutions are numbered along the chain they refer to.

Columns and labels:
[1] = molecular target: T1, full-length mouse Plexin-B1 protein MusPlexin-B1 on cells (mouse, UniProt Q8CJH3 20-2119); assay: flow cytometry on MusPlexin-B1-HEK293 cells with biotinylated antigen protein and streptavidin PE
T1 construct: whole, on cells; Overexpressed on HEK293 cells; also called MusPlexin-B1-HEK293
Protocol: Flow cytometry identification of HuPlexin-B1-HEK293, MusPlexin-B1-HEK293, CynoPlexin-B1-HEK293, and HuPlexin-B2-HEK293 cells: cells of the above cell lines in the logarithmic growth phase were trypsinized and plated into 96-well plates. […] After washing, the prepared eBioscience Streptavidin PE (Invitrogen, 2265658, 1:300) was added and the plates were incubated at 4° C. for 30 min. Finally, detection was performed using a flow cytometer (Beckman, CytoFLEXAOO-1-1102).

[2] = molecular target: T2, full-length human CD100 protein HuCD100 on cells (human, UniProt Q92854 22-862); assay: flow cytometry on HuPBMCs naturally expressing human CD100
T2 construct: whole, on cells; the cell is named under assay; also called HuCD100-HEK293; human CD100 on HuPBMC
Protocol: (§1) The specific procedures were as follows: HuPBMCs (AllCells, PB004F-C (Y1246)) and Jurkat cells (ATCC, TIB-152) in logarithmic growth phase were prepared as single-cell suspensions. The density was adjusted to 1×10⁶ cells/mL, and 100 μL of each suspension was added per well to 96-well plates. The plates were centrifuged at 4° C., 300 g and the supernatants were removed. […] After incubation, the cell mixture was washed three times, and then 100 μL of 1:300 diluted secondary antibody Goat F(ab′)₂ Anti-Human IgG-Fc (PE) (abcam, ab98596) was added, and the plates were incubated in the dark at 4° C. for 30 min. Following 3 additional washes, detection was performed using a flow cytometer (Beckman, CytoFLEX AOO-1-1102).

[3] = molecular target: T2, full-length human CD100 protein HuCD100 …; assay: flow cytometry on Jurkat cells naturally expressing human CD100
Protocol: as §1

HuCD100-His = HuCD100-His (human, UniProt Q92854 22-734); assay: cell-based or functional assay
[4] = molecular target: T3, full-length mouse CD100 protein MusCD100 on cells (mouse, UniProt O09126 24-861); assay: flow cytometry on MusCD100-HEK293 cells
T3 construct: whole, on cells; Overexpressed on HEK293 cells; also called MusCD100-HEK293

MusCD100-His [5] = molecular target: T4, MusCD100-His (mouse, UniProt O09126 24-733); assay: primary ELISA screening of monoclonal clones
T4 construct: range 24-733; Expressed in HEK293 cells; also called MusCD100-His antigen protein; not shown: His tag added to the C-terminus

MusCD100-His [6] = molecular target: T4, MusCD100-His; assay: ELISA, antigen coated on plate

T1 sequence (Q8CJH3 20-2119): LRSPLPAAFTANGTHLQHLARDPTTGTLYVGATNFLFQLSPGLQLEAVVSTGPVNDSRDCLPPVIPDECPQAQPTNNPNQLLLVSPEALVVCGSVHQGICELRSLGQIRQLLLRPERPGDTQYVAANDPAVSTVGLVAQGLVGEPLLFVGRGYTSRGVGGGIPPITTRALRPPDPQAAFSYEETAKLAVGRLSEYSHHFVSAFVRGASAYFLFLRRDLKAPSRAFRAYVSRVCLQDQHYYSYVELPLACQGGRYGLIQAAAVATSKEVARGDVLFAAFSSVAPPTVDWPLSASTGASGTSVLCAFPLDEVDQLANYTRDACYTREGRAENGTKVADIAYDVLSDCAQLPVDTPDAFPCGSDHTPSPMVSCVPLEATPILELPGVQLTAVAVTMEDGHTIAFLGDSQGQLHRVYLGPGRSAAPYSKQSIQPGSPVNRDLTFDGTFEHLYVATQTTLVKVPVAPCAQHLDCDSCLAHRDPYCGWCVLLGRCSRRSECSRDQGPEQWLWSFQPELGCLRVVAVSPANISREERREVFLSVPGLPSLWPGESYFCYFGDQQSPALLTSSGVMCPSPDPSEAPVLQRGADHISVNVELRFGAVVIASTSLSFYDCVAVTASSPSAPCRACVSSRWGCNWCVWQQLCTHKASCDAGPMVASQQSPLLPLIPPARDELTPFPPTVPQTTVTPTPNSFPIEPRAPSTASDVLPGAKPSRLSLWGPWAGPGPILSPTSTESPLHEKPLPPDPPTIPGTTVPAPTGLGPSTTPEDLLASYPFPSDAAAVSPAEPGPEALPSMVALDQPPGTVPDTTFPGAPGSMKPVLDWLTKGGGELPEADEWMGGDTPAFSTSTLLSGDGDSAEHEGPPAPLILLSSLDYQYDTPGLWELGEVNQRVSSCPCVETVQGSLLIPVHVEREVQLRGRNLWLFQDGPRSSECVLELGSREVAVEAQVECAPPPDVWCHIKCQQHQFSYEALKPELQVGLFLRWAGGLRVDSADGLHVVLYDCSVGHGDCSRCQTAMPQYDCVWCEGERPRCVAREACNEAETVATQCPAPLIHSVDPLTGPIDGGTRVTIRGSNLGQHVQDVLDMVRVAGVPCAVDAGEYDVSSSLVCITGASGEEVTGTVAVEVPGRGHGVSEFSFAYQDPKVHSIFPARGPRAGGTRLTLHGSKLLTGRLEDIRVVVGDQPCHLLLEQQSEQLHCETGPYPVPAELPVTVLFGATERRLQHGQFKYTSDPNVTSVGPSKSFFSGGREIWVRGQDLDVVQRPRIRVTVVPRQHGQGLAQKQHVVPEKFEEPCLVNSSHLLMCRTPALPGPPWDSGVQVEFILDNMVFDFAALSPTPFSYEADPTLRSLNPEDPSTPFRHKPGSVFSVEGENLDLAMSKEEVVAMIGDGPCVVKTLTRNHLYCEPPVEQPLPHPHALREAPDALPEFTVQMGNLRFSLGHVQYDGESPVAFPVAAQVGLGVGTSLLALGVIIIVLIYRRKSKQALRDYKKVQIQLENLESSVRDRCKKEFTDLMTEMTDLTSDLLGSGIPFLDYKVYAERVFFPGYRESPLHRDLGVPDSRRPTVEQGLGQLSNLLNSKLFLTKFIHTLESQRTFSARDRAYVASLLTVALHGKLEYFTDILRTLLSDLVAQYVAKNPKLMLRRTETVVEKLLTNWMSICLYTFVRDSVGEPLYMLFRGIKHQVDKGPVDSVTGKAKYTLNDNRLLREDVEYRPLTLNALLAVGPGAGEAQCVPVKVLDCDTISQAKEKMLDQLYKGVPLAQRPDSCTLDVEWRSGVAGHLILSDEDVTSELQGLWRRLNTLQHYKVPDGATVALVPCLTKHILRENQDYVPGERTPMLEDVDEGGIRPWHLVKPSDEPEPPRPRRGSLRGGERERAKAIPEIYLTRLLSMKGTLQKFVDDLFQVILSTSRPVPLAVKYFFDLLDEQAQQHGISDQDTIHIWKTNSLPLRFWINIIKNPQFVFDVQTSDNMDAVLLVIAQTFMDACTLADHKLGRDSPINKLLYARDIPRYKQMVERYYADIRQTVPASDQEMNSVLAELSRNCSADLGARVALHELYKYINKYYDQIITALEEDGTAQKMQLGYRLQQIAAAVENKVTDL

B1: MusCD100-Fc (Fc fusion, mouse, UniProt O09126 24-733, looked up)
chain: FAPVPRLTWEHGEVGLVQFHKPGIFNYSALLMSEDKDTLYVGAREAVFAVNALNISEKQHEVYWKVSEDKKSKCAEKGKSKQTECLNYIRVLQPLSSTSLYVCGTNAFQPTCDHLNLTSFKFLGKSEDGKGRCPFDPAHSYTSVMVGGELYSGTSYNFLGSEPIISRNSSHSPLRTEYAIPWLNEPSFVFADVIQKSPDGPEGEDDKVYFFFTEVSVEYEFVFKLMIPRVARVCKGDQGGLRTLQKKWTSFLKARLICSKPDSGLVFNILQDVFVLRAPGLKEPVFYAVFTPQLNNVGLSAVCAYTLATVEAVFSRGKYMQSATVEQSHTKWVRYNGPVPTPRPGACIDSEARAANYTSSLNLPDKTLQFVKDHPLMDDSVTPIDNRPKLIKKDVNYTQIVVDRTQALDGTFYDVMFISTDRGALHKAVILTKEVHVIEETQLFRDSEPVLTLLLSSKKGRKFVYAGSNSGVVQAPLAFCEKHGSCEDCVLARDPYCAWSPAIKACVTLHQEEASSRGWIQDMSGDTSSCLDKSKESFNQHFFKHGGTAELKCFQKSNLARVVWKFQNGELKAASPKYGFVGRKHLLIFNLSDGDSGVYQCLSEERVRNKTVSQLLAKHVLEVKMVPRTPPSPTSEDAQTEGSKITSKMPVASTQGSSPPTPALWATSPRAATLPPKSSSGTSCEPKMVINTVPQLHSEKTVYLKSSDNR
modifications: biotinylated in the Plexin binding and blocking assays (sites not given)
notes: range 24-733; Expressed in HEK293 cells; also called MusCD100-Fc-Biotin; MusCD100-Fc antigen protein; not shown: human Fc tag added to the C-terminus
binding result [1]: binds

B2: Pepinemab (antibody, V domains shown)
VH: QVQLVQSGAEVKKPGSSVKVSCKASGYSFSDYYMHWVRQAPGQGLEWMGQINPTTGGASYNQKFKGKATITVDKSTSTAYMELSSLRSEDTAVYYCARYYYGRHFDVWGQGTTVTVSS
VL: DIVMTQSPDSLAVSLGERATINCKASQSVDYDGDSYMNWYQQKPGQPPKLLIYAASNLESGVPDRFSGSGSGTDFTLTISSLQAEDVAVYYCQQSNEDPYTFGQGTKLEIK
EC50 [2]: 0.223 nM
EC50 [3]: 0.559 nM

B3: A31 (antibody, human IgG4 S228P, V domains shown)
VH: EVQLVESGGGLVQPEGSLRLSCAASGFPLDYYAIGWFRQAPGKEREGVSCIISGGSTKYSASVKGRFTISRDSANNTVYLQMNSLKPEDTAVYFCAVSWSCDLFPRDTYGWDAWGQGTLVTVSS
notes: also called antibody A31; antibody molecule A31
EC50 [2]: 0.162 nM
EC50 [3]: 0.302 nM
MDSC proportion (%) at 2.821 nM antibody (HuCD100-His): 16.8%
MDSC proportion (%) at 8.463 nM antibody (HuCD100-His): 8.97%
MDSC proportion (%) at 25.389 nM antibody (HuCD100-His): 9.56%
MDSC proportion (%) at 76.166 nM antibody (HuCD100-His): 10.4%
MDSC proportion (%) at 228.498 nM antibody (HuCD100-His): 10.7%
MDSC proportion (%) at 685.495 nM antibody (HuCD100-His): 14.7%
binding result [4]: binds

B4: A31-VHH (VHH)
VHH: B3 VH
notes: Tested as phage clone / VHH lysate in the screening; also called antibody A31-VHH
binding result (MusCD100-His [5]): binds

B5: A31-VHH1 (antibody, human IgG4 S228P, V domains shown)
VH: B3 VH with N75K, K86R, P87A
notes: also called humanized antibody A31-VHH1
binding result (MusCD100-His [6]): binds
MDSC proportion (%) at 2.821 nM antibody (HuCD100-His): 16.4%
MDSC proportion (%) at 8.463 nM antibody (HuCD100-His): 9.21%
MDSC proportion (%) at 25.389 nM antibody (HuCD100-His): 7.71%
MDSC proportion (%) at 76.166 nM antibody (HuCD100-His): 7.84%
MDSC proportion (%) at 228.498 nM antibody (HuCD100-His): 13.7%
MDSC proportion (%) at 685.495 nM antibody (HuCD100-His): 10%
binding result [4]: binds

B6: A9-VHH2 (antibody, human IgG4 S228P, V domains shown)
VH: QVQLVESGGGLVQAGGSLRLSCAASGFSLDYYAIGWFRQAPGKEREEVSCISSSGGSTDYADSVKGRFTISRAYAKVYLQMNSLRAEDTAVYYCAAGVSGSVCPPLIGAYWGQGTLVTVSS
MDSC proportion (%) at 2.821 nM antibody (HuCD100-His): 31.2%
MDSC proportion (%) at 8.463 nM antibody (HuCD100-His): 17.8%
MDSC proportion (%) at 25.389 nM antibody (HuCD100-His): 13.1%
MDSC proportion (%) at 76.166 nM antibody (HuCD100-His): 10.5%
MDSC proportion (%) at 228.498 nM antibody (HuCD100-His): 9.09%
MDSC proportion (%) at 685.495 nM antibody (HuCD100-His): 10.9%

B7: A9 (antibody, human IgG4 S228P, V domains shown)
VH: B6 VH with R85K, A86P, L116Q
notes: also called antibody A9; antibody molecule A9
EC50 [2]: 0.191 nM
EC50 [3]: 0.346 nM
MDSC proportion (%) at 2.821 nM antibody (HuCD100-His): 34.2%
MDSC proportion (%) at 8.463 nM antibody (HuCD100-His): 23.2%
MDSC proportion (%) at 25.389 nM antibody (HuCD100-His): 10.2%
MDSC proportion (%) at 76.166 nM antibody (HuCD100-His): 5.12%
MDSC proportion (%) at 228.498 nM antibody (HuCD100-His): 7.08%
MDSC proportion (%) at 685.495 nM antibody (HuCD100-His): 11.1%

B8: A9-VHH1 (antibody, human IgG4 S228P, V domains shown)
VH: B6 VH with A14P, R85K, A86P
MDSC proportion (%) at 2.821 nM antibody (HuCD100-His): 32.6%
MDSC proportion (%) at 8.463 nM antibody (HuCD100-His): 21.1%
MDSC proportion (%) at 25.389 nM antibody (HuCD100-His): 11%
MDSC proportion (%) at 76.166 nM antibody (HuCD100-His): 6.56%
MDSC proportion (%) at 228.498 nM antibody (HuCD100-His): 9.06%
MDSC proportion (%) at 685.495 nM antibody (HuCD100-His): 15.6%

B9: A9-VHH3 (antibody, human IgG4 S228P, V domains shown)
VH: B6 VH with E44G, R45L
MDSC proportion (%) at 2.821 nM antibody (HuCD100-His): 30.9%
MDSC proportion (%) at 8.463 nM antibody (HuCD100-His): 21.3%
MDSC proportion (%) at 25.389 nM antibody (HuCD100-His): 11.8%
MDSC proportion (%) at 76.166 nM antibody (HuCD100-His): 7.66%
MDSC proportion (%) at 228.498 nM antibody (HuCD100-His): 8.85%
MDSC proportion (%) at 685.495 nM antibody (HuCD100-His): 15%
